Where two headings read alike, the source gives them in different places. Peptide text beside a SMILES is read from it.
Columns and labels:
[1] = biological target: HLA-DRB5*01∶01 (recombinant HLA-DR alpha chain with FOS zipper paired with HLA-DRB5*01∶01 beta chain with JUN zipper and BSP); test: AlphaScreen or HTRF
[2] = biological target: HLA-DRB1*15∶01 (recombinant HLA-DR alpha chain with FOS zipper paired with HLA-DRB1*15∶01 beta chain with JUN zipper and BSP); test: AlphaScreen or HTRF
[3] = biological target: HLA-DRB1*01∶01 (recombinant HLA-DR alpha chain with FOS zipper paired with HLA-DRB1*01∶01 beta chain with JUN zipper and BSP); test: AlphaScreen or HTRF
[4] = biological target: T1, HLA-DRB5*01∶01 (Homo sapiens, UniProt P01903+Q30154); test: biochemical; format: binding
T1 construct: expression of transmembrane-truncated versions of isolated α and in vivo biotinylated β chain molecules in E. coli; made in house

[5] = biological target: T2, HLA-DRB1*15∶01 (Homo sapiens, UniProt P01903+P01911); test: biochemical; format: binding; conditions: C-terminally H6-tagged peptide, read-out: KD (nM) HLA-DRB1*15∶01 + tag
T2 construct: expression of transmembrane-truncated versions of isolated α and in vivo biotinylated β chain molecules in E. coli; made in house

[6] = biological target: T3, HLA-DRB1*01∶01 (Homo sapiens, UniProt P01903+P01911, A100R/D57E/F55L/F60I/F76Y/I96L/L162R/M171V/P40L/Q125E/R42F/V115G/Y59C); test: biochemical; format: binding; conditions: C-terminally H6-tagged peptide, read-out: KD (nM) HLA-DRB1*01∶01 + tag
T3 construct: expression of transmembrane-truncated versions of isolated α and in vivo biotinylated β chain molecules in E. coli; made in house

[7] = C-terminally H6-tagged peptide, […], read-out: KD (nM) HLA-DRB5*01∶01 + tag

Compound | Kd [1] | Kd [2] | Kd [3] | Kd ([4]; read-out: KD (nM) HLA-DRB5*01∶01 − tag) | Kd [5] | Kd [4, 7] | Kd [6]
Influenza A peptide HA_(307–318(H6)) | 17 nM | 345 nM | 19 nM |  |  |  | 
cytomegalovirus (CMV) peptide IE1_(211–225(H6)) | 8 nM | 127 nM | 42 nM |  |  |  | 
Influenza A peptide HA_(307–318) | 4 nM | 25 nM | 9 nM |  |  |  | 
CC(C)C[C@H](NC(=O)[C@@H](NC(=O)[C@H](Cc1ccccc1)NC(=O)[C@@H](NC(=O)[C@H](Cc1ccccc1)NC(=O)CNC(=O)[C@@H](N)CC(C)C)C(C)C)[C@@H](C)O)C(=O)N[C@H](C(=O)N[C@H](C(=O)N1CCC[C@H]1C(=O)N[C@@H](CO)C(=O)N[C@@H](CCC(=O)O)C(=O)N[C@@H](CCCNC(=N)N)C(=O)NCC(=O)O)C(C)C)[C@@H](C)O [Influenza A MP60–72, reference compound] |  |  |  | 7 nM |  |  | 
CC(C)C[C@H](NC(=O)[C@H](CCCCN)NC(=O)[C@H](CC(C)C)NC(=O)[C@@H](NC(=O)[C@H](CC(N)=O)NC(=O)[C@H](CCC(N)=O)NC(=O)[C@H](CCCCN)NC(=O)[C@@H](NC(=O)[C@H](Cc1ccc(O)cc1)NC(=O)[C@H](CCCCN)NC(=O)[C@@H](N)Cc1ccc(O)cc1)C(C)C)[C@@H](C)O)C(=O)N[C@@H](C)C(=O)N[C@H](C(=O)N[C@@H](Cc1c[nH]cn1)C(=O)N[C@@H](Cc1c[nH]cn1)C(=O)N[C@@H](Cc1c[nH]cn1)C(=O)N[C@@H](Cc1c[nH]cn1)C(=O)N[C@@H](Cc1c[nH]cn1)C(=O)N[C@@H](Cc1c[nH]cn1)C(=O)O)[C@@H](C)O [Influenza A HA306–318 + tag] (H-YKYVKQNTLKLATHHHHHH-OH) |  |  |  |  | 345 nM | 17 nM | 
Influenza A peptide MP_(60–73) | 7 nM | 270 nM | 17 nM |  |  |  | 
cytomegalovirus (CMV) peptide IE1_(211–225) | 8 nM |  |  |  |  |  | 
Influenza A peptide MP_(60–73(H6)) | 13 nM | 282 nM | 40 nM |  |  |  | 
CC(C)C[C@H](NC(=O)[C@@H](NC(=O)[C@H](Cc1ccccc1)NC(=O)[C@@H](NC(=O)[C@H](Cc1ccccc1)NC(=O)CNC(=O)[C@@H](N)CC(C)C)C(C)C)[C@@H](C)O)C(=O)N[C@H](C(=O)N[C@H](C(=O)N1CCC[C@H]1C(=O)N[C@@H](CO)C(=O)N[C@@H](CCC(=O)O)C(=O)N[C@@H](CCCNC(=N)N)C(=O)NCC(=O)N[C@@H](Cc1c[nH]cn1)C(=O)N[C@@H](Cc1c[nH]cn1)C(=O)N[C@@H](Cc1c[nH]cn1)C(=O)N[C@@H](Cc1c[nH]cn1)C(=O)N[C@@H](Cc1c[nH]cn1)C(=O)N[C@@H](Cc1c[nH]cn1)C(=O)O)C(C)C)[C@@H](C)O [Influenza A MP60–72 + tag] (H-LGFVFTLTVPSERGHHHHHH-OH) |  |  |  |  | 282 nM | 13 nM | 40 nM
Hepatitis C (Hep C) peptide NS3_(218–235) |  | 2 nM | 3 nM |  |  |  | 
Hepatitis C peptide Hep C-NS3_(218–235(H6)) | 37 nM | 2 nM | 5 nM |  |  |  | 

Reference: paper PMC3759463 (PLoS ONE, 2013)
